Assay: soluble on expression in E. coli; label from the status in PepcDB or PDB records

Sequence	soluble on expression in E. coli
MNTQKRQQIRTEIRKIRANLTALQQHQAEQSVTQHALNLIEQRQAKNIALYFSFDGEISTKALIQSLWMQNKNVYLPVLHPFTKHYLLFLRYLPDTPMKQNQFGIWEPKLNVQNVLPLNELDILFTPLVAFDKKGNRLGMGGGFYDRTLQNWQNKSFIPVGLAYQCQQVENLPTEHWDVPLFDILVGLEHHHHHH	not soluble
MNTQTGTGTSEVSKKLKAAIRAKLEELGVYVDDELPDYIMVMIANKKEKVQMKDDLNLFIGKSTAKFVDWLFDLFDRLQNASNKQGETSKKEEDKRKELEATAAAKEHEEKRRKEKEEHEKELQKEKEREKERQRERDREKRAEEEKRREEKRKEIQRSKRRRTRSRSNTYSDEEEHVRARGEKHDRHHHKDHRRGRSHERKIITSTIVRQASASPDKKLHSTVTVKRNIRPTGDQNIKGRGTMFLRAMNEASVSAGYGSSSKRSETHHEDDMSDVEALPSKPASTKSPKKSIRDRMSRISKTSEPPIEEDDAVVLEDFAQTGGGPQMILKLSGGREAIKKTRIQDRIVVDDGLRRGLLKRKIETASGASAGAATSEEPKSKHDRIIFDITPSRDSTPTDDSPTMQKWNGQIEIGDDSEESEDDEEAEIDAFVAEARGIARRESFRDEEDELPPTHQLSGGPYAYHHSTAAPTYIPTPLSVLSEQQNQMGGGAAKEDHHVKERCIFWPKCTKGDTCAFMHPTTNCKNFPNCTFGIRCLFIHPPCRFDRFCTKKHCPFTHHGTGGQQPGGAQLTSEFKNPLTSSRMLTVPSPFIAATAAAVEELPKPAARGALGSLAEKLAASIKKKPAPGAESEKKEEKSDENESKAEEPKAEVAPVQPKPLPDIAPLHSMVLCRYAGACRNPICHFKHPKECRFGANCRNPSCYFYHKPAGAAPTPVAAPIAAESAGAAKYKWTSATAN	not soluble
MNTRIKPVRSFLFVPGNKESMLDKAAQAGADALILDLEDSVPSPEKTAARELVAKKIPELIAQNQRIWVRINRTAHIYDLDDILAVAPAGIEGIYISKPGGPEDVYMASCMIAEAEARANLPLGSIGLIPLLETARSMQLCYDIAQMPRVAGIVGATARNADMGRALKFVWTAEGRETEYLKSRVVMAARAAGKQAIGGLWQQIKDLDGLAKSSAFDRQLGMSGELVLHPMQVETINRTYTPTAEDVAYYQGMIEALDAAQAQGRASVMYEGEHIDIAHVKTAHEVIALAQSFGN	not soluble
MNVDLHCHSTASDGALSPTALVARAHEYGVRVLSLTDHDTLEGLEEARTAAHSLGMQLVNGVELSCTWGGATIHVLGYGFDTQAPALTEAIARLHEGRWLRAEEISRKLAIKGMPGALEGARAIQQALGDSGNAPARPHFADFMVRAGFVKDRAEAFRKWLGAGKLGDVKQHWPTLEDTVATLRASGAWVSLAHPSHYDFTRSKRRKLVGDFVQAGGHAIEVVNGMQPADQVGTLAILAREFGLLVSAGSDFHGPGNWGEIGTYRPVPEDLPPLWCRFKHEQPTAAV	not soluble
MNVFNPAQFRAQFPALQDAGVYLDSAATALKPEAVVEATQQFYSLSAGNVHRSQFAEAQRLTARYEAAREKVAQLLNAPDDKTIVWTRGTTESINMVAQCYARPRLQPGDEIIVSVAEHHANLVPWLMVAQQTGAKVVKLPLNAQRLPDVDLLPELITPRSRILALGQMSNVTGGCPDLARAITFAHSAGMVVMVDGAQGAVHFPADVQQLDIDFYAFSGHKLYGPTGIGVLYGKSELLEAMSPWLGGGKMVHEVSFDGFTTQSAPWKLEAGTPNVAGVIGLSAALEWLADYDINQAESWSRSLATLAEDALAKRPGFRSFRCQDSSLLAFDFAGVHHSDMVTLLAEYGIALRAGQHCAQPLLAELGVTGTLRASFAPYNTKSDVDALVNAVDRALELLVD	soluble
MNVLLMAYGTPYAPEEVEPYYTDIRRGRRPSEELLKELAERYEAIGKSPLNEITLAQAVRLQALLNLEAPPYPKRLLSPFPPRAPHGPARVYVGTKHWHPSIGEAVAAMHEDGVRRAVAIVAAPHYSLRSVAEYREKVDSALKALPEPIDFVWVESYEAHPGLIAAYARRLEEVIWRLKNPGKAAYVFTAHSIPLSAVEKGDPYPRQVEKTAELIAKKLALPRFHVAYQSAGRTPEPWLGPDINELLRTLKEEGYEEVAVQAVGFPADHLEVFYDLDLEAQATARELGLRLLRARSLNADLDYIQVLKDLVEAAWPR	soluble
MNVMDTHPDGRAIAHLAERIRAGLIGHEILVERLMTALLTGGHVLIEGAPGLAKTRAVKRLAQGLDGSFARIQCTPDLMPSDLTGTQVFRRQSESFDFVPGPIFHSLVLVDEINRAPPKVQSALLEAMAEGQVTAGGVTRPLPDPFMVVATQNPIEHEGTFPLPEAQLDRFLLHVDLAMPGAEAERAILDLVEGEAREAALPAGRPLELAELRRARAAVAGIHLAPALRDFIVRLVIATRETEGSPLEGLIEHAVSPRGTLALAASARSRALLHGRDHALPEDVEALAPDALAHRLVPSWRATSEGISARGIVARLLPHVRPWLEHHHHHH	not soluble
MNVSHISAVSYYFARYIQEVLEVPVGIVVSTWGGSKIEAWMSRESIKPFSSIDLSILDNDAEVKNPTATPCVLYNGKIAPLTNFAVRGFLWYQGESNRDNADLYQSLMPAFVADLRAKWGRGELPFYFVQIAPFDYEGADGTSAARLREVQLQNMKDIPNSGMVTTMDVGHPVFIHPVDKETVGNRLAYWALAQTYGMKGFGYAPPVYKSMEIQENKIYINFYNAQRGLSPMWTSLKGFEIAGEDKVFYPAFAEIETTTARLAVSSDKVSHPVAVRYAYKNYVEASIFSIHGIPAAPFRTDNWLEHHHHHH	not soluble
MNVVILDTGCANLNSVKSAIARHGYEPKVSRDPDVVLLADKLFLPGVGTAQAAMDQVRERELFDLIKACTQPVLGICLGMQLLGRRSEESNGVDLLGIIDEDVPKMTDFGLPLPHMGWNRVYPQAGNRLFQGIEDGAYFYFVHSYAMPVNPWTIAQCNYGEPFTAAVQKDNFYGVQFHPERSGAAGAKLLKNFLEM	soluble
MNVVIVRYGEIGTKSRQTRSWFEKILMNNIREALVTEEVPYKEIFSRHGRIIVKTNSPKEAANVLVRVFGIVSISPAMEVEASLEKINRTALLMFRKKAKEVGKERPKFRVTARRITKEFPLDSLEIQAKVGEYILNNENCEVDLKNYDIEIGIEIMQGKAYIYTEKIKGWGGLPIGTEGRMIGILHDELSALAIFLMMKRGVEVIPVYIGKDDKNLEKVRSLWNLLKRYSYGSKGFLVVAESFDRVLKLIRDFGVKGVIKGLRPNDLNSEVSEITEDFKMFPVPVYYPLIALPEEYIKSVKERLGL	soluble
MNVVKISPRGYCYGVVDAMVLARQAAQNLDLPRPIYILGMIVHNKHVTDAFEEEGIISLDGPNRLDILKQVDKGTVIFTAHGVSPQVRKLAKEKGLTVVDATCPDVTRTHDLIREKSQEGYKFIYVGKKGHPEPEGAIGVAPEFVHLVENVEDVESLDISADKIIITNQTTMSQWDVSEIMKKAMEKYPQAEVHNEICLATQVRQEAVAEQARECDLVIVVGDPKSNNSNRLAQVSEQIAGTKAYRIGDVTELQQEWFDGVETVGVTAGASTPTPITKEVIAFIEKYDPSKPETWTPERKVTLQKILPKVKIKKLEHHHHHH	soluble
MNVVRYTPWPGQAALQNEIKQVFDRFFEHNGDTDESAVVTAQWVPRVDIKEEPNQFVLYADLPGIDPADIEVQMDKGILSIKGERKTESSSQTEHFSRIERRYGSFHRRFALPDSADADGITASGSHGVLRILIPKQAATTPRRIQVGNAVSSDVALQSMLEHHHHHH	soluble
MNYAIQSETRHYPYLEVSARKRALKHSLIRVEQGLLLFRLGKHEYAVEKGQTLWIPFDCLCGLTFFPDTHITRVDFSLRLNVRLPHNAGFIKSSELALAVLHRLQNCERHHPTFTHLTQLLMLELTTCDPKLKMSPLTQAITEWQPQAHASVSKEQHVVLLVREALKRSQSGAQTHSIIEELFSGNAEHYHQLCTLVLGRTL	not soluble
MNYFPDEVIEHVFDFVTSHKDRNAISLVCKSWYKIERYSRQKVFIGNCYAINPERLLRRFPCLKSLTLKGKPHFADFNLVPHEWGGFVLPWIEALARSRVGLEELRLKRMVVTDESLELLSRSFVNFKSLVLVSCEGFTTDGLASIAANCRHLRDLDLQENEIDDHRGQWLSCFPDTCTTLVTLNFACLEGETNLVALERLVARSPNLKSLKLNRAVPLDALARLMACAPQIVDLGVGSYENDPDSESYLKLMAVIKKCTSLRSLSGFLEAAPHCLSAFHPICHNLTSLNLSYAAEIHGSHLIKLIQHCKKLQRLWILDSIGDKGLEVVASTCKELQELRVFPSDLLGGGNTAVTEEGLVAISAGCPKLHSILYFCQQMTNAALVTVAKNCPNFIRFRLCILEPNKPDHVTSQPLDEGFGAIVKACKSLRRLSLSGLLTDQVFLYIGMYANQLEMLSIAFAGDTDKGMLYVLNGCKKMKKLEIRDSPFGDTALLADVSKYETMRSLWMSSCEVTLSGCKRLAEKAPWLNVEIINENDNNRMEENGHEGRQKVDKLYLYRTVVGTRMDAPPFVWIL	not soluble
MNYGFNFLHNTIIMMIIRSIIFRNFLFSISQLSQLNNVNTCSIIFHSLFTHFQITSHFTQMAAASSAPHQMQVRVTFYTSHNPQSVLMILKNDQALQQISEKARELFPSADYRLYYGDVNGPIFEFTNSDQIMSKIRITTFSRTPQLFVRLETVPLRPTALPSVSTETAKKASDADRESKSRSSLKRIENNQELTLKTLEKLQKELSRVSALETMVADLHAKEREPVVEEVQKPFPPVKHSASCDACLGDIIGHRFKCLECADYDLCEKCERKSLHYEHAMIRIVEPKKTMIPSYVTSNSPNNVFPTYMQHKIQQPQTIKGINKTVITRLVPSHQVNPAPMPQAPPVSTPVPFPPSPTIGNGAVPKPAQEPRIPPSPTSALPPPQFFNEETRAAIINSAALLKETFSTLSRSFLDLADGAQANMDKKIIERSTMEAGMTKFEEKMDNLKRHCEEKYLGTETAEAEKSEESSKKQADSLSGPKIKKAKKKSCYKKSAERLFTMQLAAAAAEQARLEQEAKKRAEASSAELQRKLAELNVKESQSKSEENIADFVLYDLYGNSLEALLRGRSSSRIADPPTTPNTEPATTELASTTSATPAVTAPASIVPVTPTAPIVETLIVPPLPPVESNPEEVTPMVTAPISIHSSFENISSDFESLSPSWGGYPDLEAAQRLEVIDDNLLDFSDVAVEAQEAQEAQEEARPEPEQSLPPFNEETEKTFDRLLEMGFSYNVTVAAIRANGSNLEMCLQALLH	not soluble
MNYILGTILESKITGVEKAQINRLKLFKQHGISSKCVYVKWNPYSYTYAKQHQIENDVFTMYDYFQKAINYKKTKQVNWIQYWEKSCRYTLKFVENSNDVRIYDEEQFVMYAHFLDKQYHQLNYVNYFDHKRRKVKRELYDGRGFLSCSRILGEGQRIVLENYYTPNGEIVIQKYFDDIKGKNTLTKVILNEDQHQQFFDTEDELVQYFLHQLCKNNDQIILDRPHELGNVIAGLNQSIPVIVVLHSTHLSGAGNGIKSFYKTVFNNLTRYKAIVVSTEKQCQDISQYIENKIPVINIPVGYVANLKYQFDINQKEKNHIISIARLVENKQIKHQIEVIKQLVTKHPNIQLNIYGHGNGLSEYRQLVEDYHLSEHVKFHGFKTHINEEIAKAELMLSTSKMEGFGLAILESLSVGTPVISYDVDYGPSELIQDGFNGYLVPQGDINQMVEKVDQLLNNTQKLQQFSINSIESAQQYNATTISTKWQNILN	not soluble
MNYLFKNGRYMNEEGKIVATDLLVQDGKIAKVAENITADNAEVIDVNGKLIAPGLVDVHVHLREPGGEHKETIETGTLAAAKGGFTTICAMPNTRPVPDCREHMEDLQNRIKEKAHVNVLPYGAITVRQAGSEMTDFETLKELGAFAFTDDGVGVQDASMMLAAMKRAAKLNMAVVAHCEENTLINKGCVHEGKFSEKHGLNGIPSVCESVHIARDILLAEAADCHYHVCHVSTKGSVRVIRDAKRAGIKVTAEVTPHHLVLCEDDIPSADPNFKMNPPLRGKEDHEALIEGLLDGTIDMIATDHAPHTAEEKAQGIERAPFGITGFETAFPLLYTNLVKKGIITLEQLIQFLTEKPADTFGLEAGRLKEGRTADITIIDLEQEEEIDPTTFLSKGKNTPFAGWKCQGWPVMTIVGGKIAWQKESALV	not soluble

— the DeepSol protein solubility set
